Laboratory results taken from patent US20250339531A1, “DUX4 POLYPEPTIDES AND NUCLEIC ACIDS FOR TREATING INFLAMMATORY AND AUTOIMMUNE CONDITIONS” (Fred Hutchinson Cancer Center, priority 2021, published 2025).

B1: IGF2BP2 (protein)
chain: MMNKLYIGNLSPAVTADDLRQLFGDRKLPLAGQVLLKSGYAFVDYPDQNWAIRAIETLSGKVELHGKIMEVDYSVSKKLRSRKIQIRNIPPHLQWEVLDGLLAQYGTVENVEQVFAFSLVNTDTETAVVNVTYATREEAKIAMEKLSGHQFENYSFKISYIPDEEVSSPSPPQRAQRGDHSSREQGHAPGGTSQARQIDFPLRILVPTQFVGAIIGKEGLTIKNITKQTQSRVDIHRKENSGAAEKPVTIHATPEGTSEACRMILEIMQKEADETKLAEEIPLKILAHNGLVGRLIGKEGRNLKKIEHETGTKITISSLQDLSIYNPERTITVKGTVEACASAEIEIMKKLREAFENDMLAVNQQANLIPGLNLSALGIFSTGLSVLSPPAGPRGAPPAAPYHPFTTHSGYFSSLYPHHQFGPFPHHHSYPEQEIVNLFIPTQAVGAIIGKKGAHIKQLARFAGASIKIAPAEGPDVSERMVIITGPPEAQFKAQGRIFGKLKEENFFNPKEEVKLEAHIRVPSSTAGRVIGKGGKTVNELQNLTSAEVIVPRDQTPDENEEVIVRIIGHFFASQTAQRKIREIVQQVKQQEQKYPQGVASQRSK
B2: ENDOD1 (protein)
chain: RLVGEEEAGFGECDKFFYAGTPPAGLAADSHVKICQRAEGAERFATLYSTRDRIPVYSAFRAPRPAPGGAEQRWLVEPQIDDPNSNLEEAINEAEAITSVNSLGSKQALNTDYLDSDYQRGQLYPFSLSSDVQVATFTLTNSAPMTQSFQERWYVNLHSLMDRALTPQCGSGEDLYILTGTVPSDYRVKDKVAVPEFVWLAACCAVPGGGWAMGFVKHTRDSDIIEDVMVKDLQKLLPFNPQLFQNNCGETEQDTEKMKKILEVVNQIQDEERMVQSQKSSSPLSSTRSKRSTLLPPEASEGSSSFLGKLMGFIATPFIKLFQLIYYLVVAILKNIVYFLWCVTKQVINGIESCLYRLGSATISYFMAIGEELVSIPWKVLKVVAKVIRALLRILCCLLKAICRVLSIPVRVLVDVATFPVYTMGAIPIVCKDIALGLGGTVSLLFDTAFGTLGGLFQVVFSVCKRIGYKVTFDNSGEL
B3: SERPINB3 (protein)
chain: MNSLSEANTKFMFDLFQQFRKSKENNIFYSPISITSALGMVLLGAKDNTAQQIKKVLHFDQVTENTTGKAATYHVDRSGNVHHQFQKLLTEFNKSTDAYELKIANKLFGEKTYLFLQEYLDAIKKFYQTSVESVDFANAPEESRKKINSWVESQTNEKIKNLIPEGNIGSNTTLVLVNAIYFKGQWEKKFNKEDTKEEKFWPNKNTYKSIQMMRQYTSFHFASLEDVQAKVLEIPYKGKDLSMIVLLPNEIDGLQKLEEKLTAEKLMEWTSLQNMRETRVDLHLPRFKVEESYDLKDTLRTMGMVDIFNGDADLSGMTGSRGLVLSGVLHKAFVEVTEEGAEAAAATAVVGFGSSPTSTNEEFHCNHPFLFFIRQNKTNSILFYGRFSSP

System: proteins that co-immunoprecipitated with DUX4-CTD constructs expressed in MB135 myoblasts
Assay: LC-MS of proteins co-immunoprecipitated with DUX4-CTD (Table 1) and western validation
Assay type: binding, human
Design: key to 4. mL1dL2 + Dox + IFNG / 4. + IFNG mix / 4. longCTD + Dox + IFNG / 3. + IFNg + Dox longCTD / 3. + Dox longCTD / 3. + IFNG longCTD: peptide-spectrum matches (PSMs) per protein
Conditions: kind of count not given; for 4. mL1dL2 + Dox + IFNG: LC-MS value per protein co-immunoprecipitated with DUX4-CTD construct mL1dL2 in MB135 myoblasts; for 4. + IFNG mix: LC-MS value per protein co-immunoprecipitated from MB135 myoblasts, + IFNG mix sample (no Dox)
Source text: As an unbiased method to identify proteins that interact with the C-terminal region of DUX4, liquid chromatography mass spectroscopy (LC-MS) was used to identify proteins that co-immunoprecipitated with DUX4-CTD constructs expressed in MB135 myoblasts. In the first experiment, MB135iDUX4-CTD cells were used, either untreated, treated with doxycycline alone, or with both doxycycline and IFNG. In the second experiment, MB135iDUX4-CTD and MB135iDUX4mL1dL2 cells were used, both treated with doxycycline and IFNG, compared to these two cell lines untreated and combined as a control. Proteins with a minimum of 2 peptide spectrum matches (PSMs) in at least one sample that were identified in both experiments were assigned to one of ten categories (see Methods) to separate candidate interactors from other categories that might be co-purified because of obligate interactions (e.g., proteasome or ribosome) or might be less likely to be physiologically relevant (e.g., cytoskeletal proteins). Candidate interactors were then ranked based on the total PSMs for that protein across all samples.
Centrifugation at 2500 rcf at 4° C. for 5 min pelleted the nuclei, supernatant was discarded, and nuclei resuspended in 1 mL IP buffer pH 7.4 (25 mM Tris-HCl pH 7.5, 175 mM NaCl, 1 mM EDTA, 0.2% NP-40, 5% glycerol) and incubated for 1 hour at 4° C. with rotation then spun at 21000 rcf for 10 minutes at 4° C. to pellet insoluble debris. Protein concentration was determined using the Pierce BCA Protein Assay Kit (ThermoFisher, 23225). An equivalent amount of protein per sample was pre-cleared with Dynabeads Protein G (Invitrogen) bound to mouse IgG (Abcam #131368) for 1 hour at 4° C. with rotation. FLAG-tagged constructs were then immunoprecipitated with Dynabeads Protein G beads coupled to mouse anti-FLAG M2 mAb (Sigma F3165) for 3 hours at 4° C. with rotation. Beads were washed 3× with 1 mL IP buffer and eluted by adding 2× NuPage LDS Sample Buffer (Thermo Fisher, diluted from 4× with PBS) to the beads and heating for 10 minutes at 70° C.
For LC-MS, anti-FLAG immunoprecipitation was performed with beads cross-linked to the anti-FLAG antibody and the proteins competitively eluted with FLAG peptide. Eluted protein samples were electrophoresed into a NuPage 4-12% Bis-Tris gel, excised, and processed by the Fred Hutchinson Cancer Research Center Proteomics Core. Samples were reduced, alkylated, digested with trypsin, desalted, and run on the Orbitrap Eclipse Tribid Mass Spectrometer (Thermo Fisher). Proteomics data were analyzed using Proteome Discoverer 2.4 against a Uniprot human database that included common contaminants using Sequest HT and Percolator for scoring. […] Proteins that were identified in at least one sample from both independent experiments with at least 2 PSMs in one sample were assigned to one of ten categories: 1, candidates; 2, cytoskeletal associated; 3, cytoskeletal; 4, ribosome/translation associated; 5, proteasome associated; 6, membrane or extracellular; ER, golgi, or vesicle associated; 8, lipid metabolism; 9, chaperones; 10, nuclear import or nuclear membrane associated. The proteins in category 1 were further investigated for interactions with DUX4.

Molecule | 4. mL1dL2 + Dox + IFNG | 4. + IFNG mix
B1 | 1 | 
B2 | 1 | 1
B3 |  | 2
